Measurements from article PMC12802350, “Opposite effects of spermidine and GC7 in cell culture are dictated by distinct molecular targets” (Biochemical Journal, 2025).

Substrate: NCCCCNCCCN
Experiment: DCHBS/AAP peroxide-coupled kinetic assay; Km from Michaelis–Menten/inhibition fit
Assay type: biochemical, Bos taurus
Conditions: TPQ (trihydroxyphenylalanine quinone), copper

B1: bovine serum amine oxidase (BSAO) (Bos taurus) (protein)
chain: REEGGVGSEEGVGKQCHPSLPPRCPSRSPSDQPWTHPDQSQLFADLSREELTTVMSFLTQQLGPDLVDAAQARPSDNCVFSVELQLPPKAAALAHLDRGSPPPAREALAIVFFGGQPQPNVTELVVGPLPQPSYMRDVTVERHGGPLPYYRRPVLLREYLDIDQMIFNRELPQAAGVLHHCCSYKQGGQKLLTMNSAPRGVQSGDRSTWFGIYYNITKGGPYLHPVGLELLVDHKALDPADWTVQKVFFQGRYYENLAQLEEQFEAGQVNVVVIPDDGTGGFWSLKSQVPPGPTPPLQFHPQGPRFSVQGNRVASSLWTFSFGLGAFSGPRVFDVRFQGERLAYEISLQEAGAVYGGNTPAAMLTRYMDSGFGMGYFATPLIRGVDCPYLATYMDWHFVVESQTPKTLHDAFCVFEQNKGLPLRRHHSDFLSHYFGGVAQTVLVFRSVSTMLNYDYVWDMVFYPNGAIEVKLHATGYISSAFLFGAARRYGNQVGEHTLGPVHTHSAHYKVDLDVGGLENWVWAEDMAFVPTAIPWSPEHQIQRLQVTRKQLETEEQAAFPLGGASPRYLYLASKQSNKWGHPRGYRIQTVSFAGGPMPQNSPMERAFSWGRYQLAITQRKETEPSSSSVFNQNDPWTPTVDFSDFINNETIAGKDLVAWVTAGFLHIPHAEDIPNTVTVGNGVGFFLRPYNFFDQEPSMDSADSIYFREGQDAGSCEINPLACLPQAATCAPDLPVFSHGGYPEY
notes: BSAO purified from bovine blood
B1 showed a Km of 173.8 µM.
